In assay [1] the target is SARS-CoV-2 S1 Beta Variant (K417N, E484K, N501Y, D614G) (SARS-CoV-2), P0DTC2. The following applies: remark: other sources report otherwise.
Assay [2] concerns the target SARS-CoV-2 S1 (D614G) (SARS-CoV-2), P0DTC2. The following applies: remark: other sources report otherwise.

B1: scFv clone #26 (scFv)
scFv: QAVLTQAPSASGTLGQQVTISCSGTTSNIGRNTVNWYQHLPGTAPKLLIFVSNQRPSGVPDRFSGSKSGTSASLVISGLQSEDEADYYCGAWDDSLDGMLFGGGTKLTVLGSRGGGGSGGGGSGGGGSLEMAQVQLVQSGAEVKKPGASVKVSCKASGYTFTSYGISWVRQAPGQGLEWMGWISAYNGNTNYAQKLQGRVTMTTDTSTSTAYMELRSLRSDDTAVYYCARGYYGDLDPWGQGTLVTVSSTSGQAGQ
For B1, the IC50 (in general, the concentration that gives 50% inhibition) in assay [1] was determined as 2.27 nM; in assay [2], 1.4 nM.
